Data on 1 molecule can be found in US20110306057A1 (Dana-Farber, published 2011).

In test [1] the target is T1, wild type (WT) FLAG epitope-tagged version of PP2A Aβ (UniProt P30154 1-601).
T1 construct: also called wtPP2A Aβ; FLAG-tagged Aβ
In words: anti-FLAG (M2) co-IP from 293T cells, RalA immunoblot.

Test [2] has as its target T2, FLAG-epitope tagged PP2A Aα (UniProt P30153 1-589).
T2 construct: also called wtPP2A Aα; FLAG-tagged Aα
The test is described as above.

Test [3] addresses T3, cancer-derived FLAG-tagged PP2A Aβ mutant G8R (UniProt P30154 1-601).
T3 construct: Overexpressed in HEK TER cells; the shRNA-resistant form carries silent substitutions only; also called G8R Aβ mutant
Kind of test: anti-FLAG (M2) co-IP from HEK TER cells, RalA immunoblot.
Protocol: (§1) Immunoblot analysis was then performed using antibodies specific to RalA (BD Biosciences, San Jose, Calif.) and FLAG (M2).

The target in test [4] is T4, cancer-derived FLAG-tagged PP2A Aβ mutant V448A (UniProt P30154 1-601).
T4 construct: Overexpressed in HEK TER cells
T4 sequence (P30154 whole entry V448A): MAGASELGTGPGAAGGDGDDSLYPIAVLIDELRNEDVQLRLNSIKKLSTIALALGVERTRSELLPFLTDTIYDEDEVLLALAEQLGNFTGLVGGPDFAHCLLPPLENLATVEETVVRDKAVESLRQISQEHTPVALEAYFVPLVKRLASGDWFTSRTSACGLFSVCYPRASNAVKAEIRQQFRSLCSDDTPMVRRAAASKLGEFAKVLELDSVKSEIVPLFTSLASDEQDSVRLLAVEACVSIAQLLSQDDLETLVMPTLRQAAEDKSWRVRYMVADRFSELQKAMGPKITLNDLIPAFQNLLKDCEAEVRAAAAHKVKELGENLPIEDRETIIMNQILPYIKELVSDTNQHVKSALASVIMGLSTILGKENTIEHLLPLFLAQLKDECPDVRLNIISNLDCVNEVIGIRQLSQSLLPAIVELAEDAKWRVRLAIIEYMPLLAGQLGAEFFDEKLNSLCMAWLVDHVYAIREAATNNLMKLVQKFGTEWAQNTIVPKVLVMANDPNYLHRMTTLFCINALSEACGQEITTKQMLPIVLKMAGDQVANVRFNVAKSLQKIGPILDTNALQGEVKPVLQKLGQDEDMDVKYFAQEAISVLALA
The description is as above.
Protocol: as §1

T3 sequence (P30154 other isoform, or with tags, fused parts or gaps limits assumed, stated change not applied): as the sequence (P30154 whole entry V448A) above, with G8R, A448V counted along it
T1 sequence (P30154 whole entry): as the sequence (P30154 whole entry V448A) above, with A448V counted along it
T2 sequence (P30153 whole entry): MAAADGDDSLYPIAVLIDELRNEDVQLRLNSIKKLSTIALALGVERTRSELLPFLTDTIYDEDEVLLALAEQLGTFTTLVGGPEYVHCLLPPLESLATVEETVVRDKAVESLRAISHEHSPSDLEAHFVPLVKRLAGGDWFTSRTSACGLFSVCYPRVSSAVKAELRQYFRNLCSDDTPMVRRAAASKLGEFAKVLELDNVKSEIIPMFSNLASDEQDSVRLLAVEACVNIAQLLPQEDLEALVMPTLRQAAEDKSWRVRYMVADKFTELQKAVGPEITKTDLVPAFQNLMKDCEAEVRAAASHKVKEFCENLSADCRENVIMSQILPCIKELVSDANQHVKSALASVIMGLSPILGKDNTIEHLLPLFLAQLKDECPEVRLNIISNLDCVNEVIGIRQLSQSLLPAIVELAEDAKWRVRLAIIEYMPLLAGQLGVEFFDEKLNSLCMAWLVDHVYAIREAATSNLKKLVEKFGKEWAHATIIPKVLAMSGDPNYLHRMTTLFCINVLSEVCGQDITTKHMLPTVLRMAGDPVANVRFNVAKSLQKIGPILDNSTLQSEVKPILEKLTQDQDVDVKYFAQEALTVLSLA

B1: endogenous RalA (enzyme)
chain: MAANKPKGQNSLALHKVIMVGSGGVGKSALTLQFMYDEFVEDYEPTKADSYRKKVVLDGEEVQIDILDTAGQEDYAAIRDNYFRSGEGFLCVFSITEMESFAATADFREQILRVKEDENVPFLLVGNKSDLEDKRQVSVEEAKNRAEQWNVNYVETSAKTRANVDKVFFDLMREIRARKMEDSKEKNGKKKRKSLAKRIRERC
notes: Endogenous protein in cell lysates; also called small GTPase RalA
Turning to B1, the binding result in test [1] is “binds”; in test [2], “no binding”; in test [3], “no binding”; in test [4], “no binding”.
